Biological target: the molecule itself
Test: SEC; Superdex 75 10/300 GL, 0.5 mg protein loaded, 50 mM potassium phosphate buffer pH 7.0, 150 mM NaCl, 0.5 ml/min; column calibrated with marker proteins; self-association of RacR (octamer)

B1: C-terminally-6His-tagged RacR repressor (natural protein, Escherichia coli K-12 (Rac prophage), UniProt P76062 1-158, looked up)
chain: MLSGKDLGRAIEQAINKKIASGSVKSKAEVARHFKVQPPSIYDWIKKGSISKDKLPELWRFFSDVVGPEHWGLNEYPIPTPTNSDTKSELLDINNLYQAASDEIRAIVAFLLSGNATEPDWVDHDVRAYIAAMEMKVGKYLKALESERKSQNITKTGT
notes: RacR repressor of the cryptic Rac prophage of Escherichia coli K-12; predicted size of the 6His-tagged monomer 18.5 kDa; not shown: 6His, C-terminal, kept
stoichiometry N: 8

Reference: PMC11014345, “Lethal perturbation of an Escherichia coli regulatory network is triggered by a restriction-modification system's regulator and can be mitigated by excision of the cryptic prophage Rac” (Nucleic Acids Research, 2023)
